This assay addresses tralokinumab half molecule (human).

B1: tralokinumab half molecule (antibody, V domains shown)
VH: QVQLVQSGAEVKKPGASVKVSCKASGYTFTNYGLSWVRQAPGQGLEWMGWISANNGDTNYGQEFQGRVTMTTDTSTSTAYMELRSLRSDDTAVYYCARDSSSSWARWFFDLWGRGTLVTVSS
VL: SYVLTQPPSVSVAPGKTARITCGGNIIGSKLVHWYQQKPGQAPVLVIYDDGDRPSGIPERFSGSNSGNTATLTISRVEAGDEADYYCQVWDTGSDPVVFGGGTKLTVL
The molecule B1 showed a dissociation half-life of 16.8 h.

For the origin of these results see article PMC9007600.
